Test results: publication PMC3035050 (Molecular microbiology, 2008)
Where a chain is given by its changes, count along the chain named. Each block holds one molecule with its values, some of them ahead of it.

T1: B. stearothermophilus primase DnaG R495A (B. stearothermophilus, UniProt Q9X4D0 1-597, R495A)
T1 sequence (looked up): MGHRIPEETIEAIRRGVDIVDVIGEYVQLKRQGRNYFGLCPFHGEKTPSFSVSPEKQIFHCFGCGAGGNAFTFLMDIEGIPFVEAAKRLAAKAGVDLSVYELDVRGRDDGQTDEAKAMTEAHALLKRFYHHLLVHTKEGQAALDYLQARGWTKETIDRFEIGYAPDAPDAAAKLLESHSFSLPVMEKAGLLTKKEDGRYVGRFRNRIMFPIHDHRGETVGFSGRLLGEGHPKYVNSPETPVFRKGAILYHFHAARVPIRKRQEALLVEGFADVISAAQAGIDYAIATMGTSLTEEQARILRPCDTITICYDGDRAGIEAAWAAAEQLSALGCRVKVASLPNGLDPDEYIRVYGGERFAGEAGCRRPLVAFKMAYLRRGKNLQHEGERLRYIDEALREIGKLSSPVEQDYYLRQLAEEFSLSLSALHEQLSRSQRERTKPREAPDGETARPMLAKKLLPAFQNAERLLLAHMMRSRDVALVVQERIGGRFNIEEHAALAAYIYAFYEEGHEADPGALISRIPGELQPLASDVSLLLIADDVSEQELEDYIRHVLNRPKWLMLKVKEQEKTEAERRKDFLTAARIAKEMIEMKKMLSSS

T2: B. stearothermophilus primase DnaG R555A (B. stearothermophilus, UniProt Q9X4D0 1-597, R555A)
T2 sequence (looked up): T1 sequence (looked up) with A495R, R555A

T3: B. stearothermophilus primase DnaG E464G (B. stearothermophilus, UniProt Q9X4D0 1-597, E464G)
T3 sequence (looked up): T1 sequence (looked up) with E464G, A495R

T4: B. stearothermophilus primase DnaG H494A (B. stearothermophilus, UniProt Q9X4D0 1-597, H494A)
T4 sequence (looked up): T1 sequence (looked up) with H494A, A495R

B1: Bacillus stearothermophilus primase DnaG (native) (enzyme, B. stearothermophilus, UniProt Q9X4D0 1-597, looked up)
chain: T1 sequence (looked up) with A495R
B2: Bacillus stearothermophilus replicative helicase DnaB (native) (enzyme, B. stearothermophilus)
chain: MSELFSERIPPQSIEAEQAVLGAVFLDPAALVPASEILIPEDFYRAAHQKIFHAMLRVADRGEPVDLVTVTAELAASEQLEEIGGVSYLSELADAVPTAANVEYYARIVEEKSVLRRLIRTATSIAQDGYTREDEIDVLLDEADRKIMEVSQRKHSGAFKNIKDILVQTYDNIEMLHNRDGEITGIPTGFTELDRMTSGFQRSDLIIVAARPSVGKTAFALNIAQNVATKTNENVAIFSLEMSAQQLVMRMLCAEGNINAQNLRTGKLTPEDWGKLTMAMGSLSNAGIYIDDTPSIRVSDIRAKCRRLKQESGLGMIVIDYLQLIQGSGRSKENRQQEVSEISRSLKALARELEVPVIALSQLSRSVEQRQDKRPMMSDIRESGSIEQDADIVAFLYRDDYYNKDSENKNIIEIIIAKQRNGPVGTVQLAFIKEYNKFVNLERRFDEAQIPPGA

Experiments:
[1] = biological target: Bacillus stearothermophilus replicative helicase DnaB (native) (B. stearothermophilus) (UniProt Q9X4C9); experiment: ITC
[2] = biological target: B2; experiment: ITC
[3] = biological target: T1, B. stearothermophilus primase DnaG R495A; experiment: SEC
[4] = biological target: T2, B. stearothermophilus primase DnaG R555A; experiment: SEC
[5] = biological target: B1; experiment: ITC
[6] = biological target: T3, B. stearothermophilus primase DnaG E464G; experiment: ITC
[7] = biological target: T4, B. stearothermophilus primase DnaG H494A; experiment: ITC

Kd [1]: 83.3 nM
stoichiometry N [1]: 0.509
Molecule: B. stearothermophilus primase DnaG Y548A (from UniProt Q9X4D0 1-597) (enzyme)

Molecule: B1
dH [2]: 17.8 kcal/mol
stoichiometry N [2]: 0.287

Molecule: B2
binding result [3]: binds
binding result [4]: binds
Ka [5]: 1.42e+08 M⁻¹
Kd [5]: 7.04 nM
Ka [6]: 1.18e+08 M⁻¹
Kd [6]: 8.5 nM
Ka [7]: 1.18e+08 M⁻¹
Kd [7]: 8.5 nM
